Positions count from the first letter of the chain named. Names may count otherwise.
B1: human ADPRibase-Mn (Homo sapiens; C253V) (protein)
chain: MDDKPNPEALSDSSERLFSFGVIADVQFADLEDGFNFQGTRRRYYRHSLLHLQGAIEDWNNESSMPCCVLQLGDIIDGYNAQYNASKKSLELVMDMFKRLKVPVHHTWGNHEFYNFSREYLTHSKLNTKFLEDQIVHHPETMPSEDYYAYHFVPFPKFRFILLDAYDLSVLGVDQSSPKYEQCMKILREHNPNTELNSPQGLSEPQFVQFNGGFSQEQLNWLNEVLTFSDTNQEKVVIVSHLPIYPDASDNVVLAWNYRDALAVIWSHECVVCFFAGHTHDGGYSEDPFGVYHVNLEGVIETAPDSQAFGTVHVYPDKMMLKGRGRVPDRIMNYKKERAFHC
notes: human liver cDNA, pGEX-6P-3-hADPRM, E. coli BL21; GST tag removed with PreScission protease, N-terminal extension … kept
B2: human ADPRibase-Mn (Homo sapiens; C253G/F37A/L196F/V252A) (protein)
chain: B1 chain with F37A, L196F, V252A, V253G
notes: as for B1

Tests used:
Assay type in all cases: biochemical, Homo sapiens
Conditions in all cases: 50 mM Tris-HCl pH 7.5, 0.4 mM MnCl2, 0.1 mg/ml BSA, 37 °C
[1] = substrate: Nc1ncnc2c1ncn2[C@@H]1O[C@H](CO)[C@H]2OP(=O)(O)O[C@H]21; assay: colorimetric phosphate assay coupled to alkaline phosphatase
[2] = substrate: C[N+](C)(C)CCOP(=O)(O)OP(=O)([O-])OC[C@H]1O[C@@H](n2ccc(N)nc2=O)[C@H](O)[C@@H]1O; assay: as above
[3] = substrate: N=c1c2ncn3c2ncn1[C@@H]1O[C@H](COP(=O)(O)OP(=O)(O)OC[C@H]2O[C@@H]3[C@H](O)[C@@H]2O)[C@@H](O)[C@H]1O; assay: HPLC assay of pRibAMP formation
Source text: HPLC assay of pRibAMP formation on human ADPRibase-Mn | displaying a decreased kcat for cADPR (Supplementary Table S1)

[4] = substrate: N=c1c2ncn3c2ncn1[C@@H]1O[C@H](COP(=O)(O)OP(=O)(O)OC[C@H]2O[C@@H]3[C@H](O)[C@@H]2O)[C@@H](O)[C@H]1O; assay: HPLC assay of pRibAMP formation, initial rates, Michaelis-Menten fit
[5] = substrate: Nc1ncnc2c1ncn2[C@@H]1O[C@H](CO)[C@H]2OP(=O)(O)O[C@H]21; assay: colorimetric phosphate assay coupled to alkaline phosphatase, Michaelis-Menten fit
[6] = substrate: C[N+](C)(C)CCOP(=O)(O)OP(=O)([O-])OC[C@H]1O[C@@H](n2ccc(N)nc2=O)[C@H](O)[C@@H]1O; assay: as above

Row | Protein | Km [1] | kcat [1] | Km [2] | kcat [2] | Km [3] | kcat [3] | Km [4] | kcat [4] | Km [5] | kcat [5] | Km [6] | kcat [6]
1 | B1 | 2,380 ± 250 µM | 148 ± 8 s⁻¹ | 1,120 ± 115 µM | 109 ± 9 s⁻¹ | 0.56 ± 0.18 mM | 1.6 ± 0.1 s⁻¹ |  |  |  |  |  | 
2 | B2 |  |  |  |  |  |  | 0.14 mM | 13 s⁻¹ | 8.7 mM | 12 s⁻¹ | 10.6 mM | 37 s⁻¹

— PMC5773619, “Specific cyclic ADP-ribose phosphohydrolase obtained by mutagenic engineering of Mn^2+-dependent ADP-ribose/CDP-alcohol diphosphatase” (Scientific Reports, 2018)
